Assay results reported in the supplement of paper PMC12042874.
± gives the uncertainty stated by the source.

Assay: amyloid nucleation score (Sup35N fusion, yeast selection) (log enrichment); library NNK2; higher = more nucleation; inactive = no reads after selection
Method in brief: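 The nucleation score is the log enrichment of output over input reads, calculated with DiMSum and centred on the mode score of non-aggregating sequences. Sequences with under 100 input reads were excluded. Reads came from Illumina sequencing of plasmid inserts from psi-negative yeast expressing Sup35N fused to peptides of 20 random codons, induced 24 hours with 100 μM copper sulfate and grown 7 days at 30°C without adenine and uracil.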

Substance	amyloid nucleation score
IHFWIMIDHG	-0.771 ± 0.35
IHGFNLSIRKMQKDGSDGQH	0.635 ± 0.65
IHRILCHGVRASMLGGSVAL	0.067 ± 0.79
IHVICCAGRVARCFVSEIMG	0.674 ± 0.48
IIADCTVARARHCLE	0.276 ± 1
IIGFLFMDFLLSCRFQFCT	-1.32 ± 0.45
IIKLGESNPKSPFGTLYYGF	-0.213 ± 1.1
IILAKLSLLTICCSIDWISR	3.07 ± 0.11
IILRCNKDFEALACIVVSRR	inactive
IIRITESASRCNTDQLFLLW	inactive
IIRYTSILWKINGSGVNFWF	-0.67 ± 0.55
IISFLLFGEGGFFLVLY	inactive
IISSYSATEARTMFIKLHCL	-0.606 ± 0.54
IIVCVSGIYLSMSQ	6.007 ± 0.035
IIVIVWQGWSNGVGLHSCGA	3.15 ± 0.063
IIWVHSTIPSRVNR	-0.183 ± 1
IKDKSHLRRIVLVTEYTRRD	0.179 ± 0.34
IKNVWFQFSCGGPGSLRVGS	0.318 ± 0.32
IKSVFMCYWGLDAVGVTAER	8.785 ± 0.047
IKTGSGVARVGYFLC	0.42 ± 0.47
ILAGSAFCLLCCVKAGWSDE	6.41 ± 0.086
ILDCLRVRESDHVSGRNRVC	0.509 ± 0.37
ILHPGSNLPRCRDMCILKGW	-0.226 ± 0.54
ILINCSRWEGRTSCVTLAQQ	2.27 ± 0.12
ILLFELNAPFVEYSNAFG	3 ± 0.045

Substance	amyloid nucleation score
ILLNTSYVYLTDSMEFTVGL	2.15 ± 0.14
ILMMNLNAADRIVNMHMSIL	inactive
ILRDVVDLQMHNTWRNRGDQ	3.66 ± 0.063
ILRLIL	0.531 ± 0.51
ILSCWSCRGRINTY	1.9 ± 0.14
ILTGILSLVAYASSPGAPCG	2.45 ± 0.22
ILTTCMNAKKLNLFGYGL	-0.291 ± 0.63
ILWKMTFKAPIAKEFPAKWL	0.065 ± 0.56
ILWNLNY	-0.596 ± 0.4
ILYFCRVLITVCMIVDMWGE	0.333 ± 0.64
ILYGLSVQFLGLFCSYCKSS	6.013 ± 0.058
ILYSSVVSLSCTLAKGNDYT	1.77 ± 0.4
ILYVCDTRELSGWGGRCYAW	1.73 ± 0.56
IMCCTRLLNSFSAITIVHIA	-0.03 ± 0.43
IMELSFLSWVLRSKMDFHAE	5.34 ± 0.066
IMGKI	0.163 ± 0.79
IMIMTGWS	-0.984 ± 0.44
IMLAVYPIIEGFIVDNMHRI	-1.25 ± 1.1
IMNRSSSG	1.03 ± 0.36
IMSSISRSNCVSLVV	inactive
IMYLVENMCHDKKFYCSVNL	4.34 ± 0.087
INDVLFTTRRGHTIS	2.75 ± 0.094
INEFCATLQERRMCYLRMKL	0.921 ± 0.74
INGCNQCALP	-0.408 ± 1
INIHIFGWLIGLRGCM	-0.504 ± 1.1

Substance	amyloid nucleation score
INMCNP	2.89 ± 0.072
INNDTVMVVHRRIHLLYYLM	inactive
INQHEPFPPGVVLKVHKTL	-0.021 ± 0.34
INSQVDGFSEWPGVVQSKTL	-0.157 ± 0.38
INVVRTNIKYTMTFCIEGTN	7.306 ± 0.032
IPAKGRNSHSVSCFF	-1.07 ± 0.63
IPDHFRTSSAYRLGDRHGG	0.103 ± 0.43
IPIYFSHMNRHWIKCYVLVC	-0.913 ± 0.36
IPLLCKFCSRGSRAKIYLMD	1.75 ± 0.095
IPPNGPVYCRYHNRQVCRAG	0.203 ± 0.34
IPSWCFVIYSRNGYGFLHCT	inactive
IPTFSSLCLMLRTEGPRVDI	-1.05 ± 1.1
IQACYGFQSNDVPLISCT	-1.78 ± 0.49
IQHTVMWNALLLALAVSRLR	0.667 ± 0.21
IQQFVKVFVGDLNLTVDRNM	7.554 ± 0.06
IQSDLNNLLMHVRVFMCSAV	4.05 ± 0.065
IRCCTYFAALSILLAPIKAG	0.322 ± 0.27
IRCVNIKSLP	-1.24 ± 1.1
IRLARISWRSRHYSTHSGVS	-0.076 ± 0.31
IRLDTKDGCRYN	inactive
IRNNPCFQSGDVGY	-0.088 ± 1.1
IRPSWLKENLRMVYWYKDYP	2.53 ± 0.077
IRRWFRLNNGRM	-0.113 ± 0.79
IRVYRGGLFNSLKKENVGAC	inactive
IRWAFWSRYGSWAKLSLRIV	-0.995 ± 0.56

Substance	amyloid nucleation score
IRWFTEKISDKHLTGCRGLT	0.345 ± 0.45
ISDATLGFGLIHVGMDVWGC	5.76 ± 0.061
ISDHTTNKDQRFSYS	-0.455 ± 1.1
ISDMS	-0.416 ± 0.28
ISEDIIWC	1.24 ± 0.25
ISEIQDLLGSALTH	2.09 ± 0.079
ISFRFLAFCFFYDKVSLEQK	inactive
ISFSSTSIHFGD	1.04 ± 0.11
ISGVSDGQMGFWRNEMGQGS	0.28 ± 0.39
ISIAGCFNTKILWMFEQ	6.32 ± 0.087
ISKEMGNYNFGLSKYAKR	-1.06 ± 0.3
ISPLHNSLKALRFGPPYSTL	-0.377 ± 0.4
ISPMWREWTWSHNWCSFPTS	inactive
ISRQDRVQWWSYSSTRLA	4.94 ± 0.077
ISSDRIYICL	5.996 ± 0.059
ISSKITRLSPGGLVS	inactive
ISTFSRVHLSKVYLRDSTIV	-1.92 ± 1.1
ISTINNGYVFRLYLGSCILD	6.02 ± 0.081
ISTSPMLACVASVRRSLIRT	0.098 ± 0.74
ISTYSLCLLSWWH	9.469 ± 0.054
ISVKDCLYPQLL	-0.492 ± 1
ISVQATGASESETIPIQTGY	2.13 ± 0.11
ITFYGTF	inactive
ITHMLLTGIPTQLSRV	-0.621 ± 0.74
ITLFDHRSSKTTLKDFAENT	-0.137 ± 1.1

Substance	amyloid nucleation score
ITPVRTVRMLSRMFNMLSQL	4.83 ± 0.056
ITSLRSLRYFHVEFVSRLWL	0.554 ± 0.81
ITSSEVGHWYRVTEKCHIRM	1.2 ± 0.3
ITTFLCSGFCIINAVRNFLS	2.77 ± 0.12
ITVYLRTRFLGFGFEYE	-0.536 ± 1
ITYNTS	0.936 ± 0.44
ITYYHCVSHARNTKNQLTDF	inactive
IVCPKSGNAVVYGLMTMNNK	0.329 ± 0.62
IVCQDFYTAWEYYTYAHR	3.07 ± 0.048
IVDLNLGSEESLFSYLGMSV	-2.45 ± 0.54
IVDTRGVPIWREISSIRVDL	-0.669 ± 0.74
IVEVVFRSIPIAMDSCCCSN	-1.14 ± 0.28
IVGAIRSKILGTGQTRVIWG	0.477 ± 0.65
IVGLQVAFFLVFKSVHRDVA	inactive
IVLAYSKTPREVN	-0.086 ± 0.65
IVLSSYLIWLD	inactive
IVLYSGCVYKD	0.218 ± 0.33
IVMGLGLGASVSRGWNN	3.58 ± 0.069
IVMYRLRLLQDATN	0.259 ± 0.65
IVNLPSYYRASRQEDVVKGR	0.75 ± 0.36
IVPRIKSAMLLKF	-0.301 ± 0.21
IVQRLPVFKFLMYELCLLNG	-0.894 ± 0.38
IVSKDRQNFVRCKDSRDHDV	-0.002 ± 0.39
IVSLCFNNWGSYRVNGQYLY	6.564 ± 0.033
